Reference: patent US7285395B2, “Stearoyl-CoA desaturase 4 gene” (Wisconsin Alumni Research Foundation, priority 2004, dated 2007)

Assays:
Format in all cases: in vivo, mouse
ob/ob mice = experiment: food intake and body weight of ob/ob mice under subcutaneous leptin treatment; conditions: leptin 200 ng/h subcutaneous miniosmotic pump
Procedure: Subcutaneous Leptin Treatment—ob/ob mice were individually caged and allowed to acclimate for a number of days prior to the start of the experiment. The mice were treated with 200 ng/h of recombinant mouse leptin (Amgen, Thousand Oaks, Calif.) […] phosphate-buffered saline (PBS) for 12 days using subcutaneously placed Alzet miniosmotic pumps model 1002 (AlZa Co., Palo Alto, Calif.) as described in Soukas, A. et al. (2000) Genes Dev. 14, 963-980, which is herein incorporated by reference in its entirety. As an additional control, a group of mice referred to as pair-fed was treated with PBS and given the same amount of food to eat as leptin-treated mice voluntarily consumed. All of the data presented were generated from this or a similar time course where mice were either treated with PBS or leptin for 12 days. Body mass and food intake were measured daily.
ob/ob mice have a mutation in the leptin gene and are a model of obesity, insulin resistance, and diabetes. […] We analyzed the mRNA level of the SCD4 isoform in the hearts of leptin-deficient ob/ob mice and ob/ob mice treated with either PBS or leptin. As an additional control, RNA isolated from saline-treated ob/ob mice that were pair-fed to the leptin treated group for 12 days was also analyzed. […] To determine which SCD isoform(s) accounted for these effects, we measured RNA levels of mSCD1, mSCD2, and mSCD4. […]

mSCD2 = experiment: quantitative RT-PCR of mSCD2 mRNA in hearts of leptin-treated ob/ob mice; conditions: heart of leptin-treated ob/ob mice, 12 days
Procedure: (§1) A, SCD activity: Microsomes were prepared from hearts of PBS-treated, ob/ob, ob/ob pair-fed (PF), and leptin-treated (ob/ob-Leptin) mice, and SCD enzyme activity was determined by measuring the incorporation of radioactivity in oleoyl-CoA using [1-^14C]stearoyl-CoA as a substrate. The reaction products were separated by TLC, and the radioactivity was quantitated. Each value represents the mean±S.E. (n=4). B, Levels of monounsaturated fatty acids in the hearts of ob/ob mice: Total fatty acids were extracted from heart of ob/ob mice treated with either leptin or PBS and wild type controls quantitated by GLC as described in the example below. *, p<0.05 versus wt-PBS; #,p<0.05 versus ob/ob-PBS. C, Total RNA was prepared from hearts of PBS or leptin-treated ob/ob mice and used to measure SCD1, SCD2, and SCD4 mRNA levels by quantitative RT-PCR analysis. The fold change relative to that of wild type was calculated after correction for the levels of cyclophilin used as a standard. Each value represents the mean±S.E. (n=4).
(§2) Subcutaneous Leptin Treatment—ob/ob mice were individually caged and allowed to acclimate for a number of days prior to the start of the experiment. […] Body mass and food intake were measured daily. […]

mSCD1 = experiment: quantitative RT-PCR of mSCD1 mRNA in hearts of leptin-treated ob/ob mice; conditions: heart of leptin-treated ob/ob mice, 12 days
Procedure: as §1, §2

mSCD4 = experiment: quantitative RT-PCR of mSCD4 mRNA in hearts of leptin-treated ob/ob mice; conditions: heart of leptin-treated ob/ob mice, 12 days
Procedure: as §1, §2

B1: leptin: recombinant mouse leptin (Amgen, Thousand Oaks, Calif.) (protein, UniProt P41160 22-167, looked up)
Leptin: VPIQKVQDDTKTLIKTIVTRINDISHTQSVSAKQRVTGLDFIPGLHPILSLSKMDQTLAVYQQVLTSLPSQNVLQIANDLENLRDLLHLLAFSKSCSLPQTSGLQKPESLDGVLEASLYSTEVVALSRLQGSLQDILQQLDVSPEC
Question: Which food intake (ob/ob mice; after 12 days of treatment) does the source give for B1 here?
Answer: 1.2 ± 0.1 g

Question: What about the “loss of initial weight” value (ob/ob mice; end of 12-day treatment) of the same molecule?
Answer: 34±0.8%

Question: What about the “expression of mSCD2 isoform” value (mSCD2) of the same molecule?
Answer: unchanged

Question: And the “expression of mSCD1 isoform” value (mSCD1)?
Answer: unchanged

Question: And the “decrease of SCD4 mRNA levels” value (mSCD4)?
Answer: greater than 75%
